Laboratory results taken from publication PMC8551270 (Scientific Reports, 2021).
Entries after “also recorded” stand apart in the source; their conditions may differ.

Columns and labels:
[1] = target: PYY3-36 analogue 60: [Lys4(TAMRA), Lys30(C20 diacid-gammaGlu-2xAdo)]PYY3-36 L30K (acylated) (UniProt P10082); experiment: fluorescence polarization (TAMRA-labelled peptide; excitation 535/25 nm, emission 595/35 nm; Tecan Spark, 384-well plate); conditions: room temperature, 140 mM NaCl at pH 7.4, 150 mM NaCl at pH 6.0, 10 mM sodium phosphate at pH 7.4, 20 mM MES at pH 6.0
Sequence of PYY3-36 analogue 60: [Lys4(TAMRA), Lys30(C20 diacid-gammaGlu-2xAdo)]PYY3-36 L30K (acylated) (P10082 whole entry, stated change not applied): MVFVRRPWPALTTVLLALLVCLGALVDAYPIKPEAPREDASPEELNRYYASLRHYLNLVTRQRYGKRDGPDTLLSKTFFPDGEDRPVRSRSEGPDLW

[2] = target: PYY3-36 analogue 58: [Lys4(TAMRA), Lys30(C14 diacid-gammaGlu-2xAdo)]PYY3-36 L30K (acylated) (UniProt P10082); experiment: as above; conditions: room temperature, 140 mM NaCl at pH 7.4, 150 mM NaCl at pH 6.0, 10 mM sodium phosphate at pH 7.4, 20 mM MES at pH 6.0
Sequence of PYY3-36 analogue 58: [Lys4(TAMRA), Lys30(C14 diacid-gammaGlu-2xAdo)]PYY3-36 L30K (acylated) (P10082 whole entry, stated change not applied): as above

[3] = target: PYY3-36 analogue 59: [Lys4(TAMRA), Lys30(C16 diacid-gammaGlu-2xAdo)]PYY3-36 L30K (acylated) (UniProt P10082); experiment: as above; conditions: room temperature, 140 mM NaCl at pH 7.4, 150 mM NaCl at pH 6.0, 10 mM sodium phosphate at pH 7.4, 20 mM MES at pH 6.0
Sequence of PYY3-36 analogue 59: [Lys4(TAMRA), Lys30(C16 diacid-gammaGlu-2xAdo)]PYY3-36 L30K (acylated) (P10082 whole entry, stated change not applied): as above

[4] = target: PYY3-36 analogue 56: [Lys4(TAMRA), Lys30(C18 diacid-gammaGlu-2xAdo)]PYY3-36 L30K (acylated) (UniProt P10082); experiment: as above; conditions: room temperature, 140 mM NaCl at pH 7.4, 150 mM NaCl at pH 6.0, 10 mM sodium phosphate at pH 7.4, 20 mM MES at pH 6.0
Sequence of PYY3-36 analogue 56: [Lys4(TAMRA), Lys30(C18 diacid-gammaGlu-2xAdo)]PYY3-36 L30K (acylated) (P10082 whole entry, stated change not applied): as above

[5] = plasma samples from minipigs dosed i.v., pooled from two minipigs for each time point; conditions: Göttingen Minipigs, up to 288 h post dosing
[6] = cited from earlier work

| Substance | Kd ([1]; pH 6.0) | Kd ([1]; pH 7.4) | Kd ([2]; pH 6.0) | Kd ([2]; pH 7.4) | Kd ([3]; pH 6.0) | Kd ([3]; pH 7.4) | Kd ([4]; pH 6.0) | Kd ([4]; pH 7.4) | fragment found [5] | further results |
| --- | --- | --- | --- | --- | --- | --- | --- | --- | --- | --- |
| porcine serum albumin (PSA), charcoal-defatted | 0.46 µM | 0.27 µM | 34 µM | 48 µM | 5.3 µM | 4.5 µM | 0.89 µM | 0.6 µM |  |  |
| human serum albumin (HSA), fatty-acid free | 0.35 µM | 0.098 µM | 23 µM | 44 µM | 4.7 µM | 4.2 µM | 0.93 µM | 0.58 µM |  |  |
| [K^ε30(C18diacid-γGlu-2xAdo)]PYY3-36 |  |  |  |  |  |  |  |  | PYY4-36, minor; also recorded: PYY6-36, minor |  |
| semaglutide |  |  |  |  |  |  |  |  |  | half-life in the minipig model [6]: approximately 46 hours |
| [C20diacid-Trx-γGlu-2xAdo]PYY3-36 |  |  |  |  |  |  |  |  | [C20diacid-Trx-LgGly-2xAdo]PYY3-34, major |  |
| [(C18diacid-γGlu-2xAdo)]PYY3-36 |  |  |  |  |  |  |  |  | PYY3-34; also recorded: PYY3-35 |  |
